Like-named read-outs stand apart in the source and are kept apart here. Where no end group is shown, it is not given here.
Legend:
[1] = test system: calcitonin oligomer; details: cited from earlier work
[2] = cited from earlier work
[3] = 4 °C, 100 mM DCl (pH 1); cited from earlier work
[4] = Pyrene fluorescence II/IIII ratio assay for micelle-like oligomer formation; assay type: physicochemical; details: pH 7.3, 20 mM phosphate buffer, 50 mM NaCl, 1 μM pyrene, 25 °C

O=C(O[C@@H]1Cc2c(O)cc(O)cc2O[C@@H]1c1cc(O)c(O)c(O)c1)c1cc(O)c(O)c(O)c1 [EGCG]
effect on formation of the calcitonin oligomer [1]: completely abolish

Aβ1–40: amyloid-beta peptide 1–40, linked to Alzheimer's disease
critical concentration ([2]; 10 mM phosphate buffer, pH 7.3): 8 µM | critical concentration ([2]; 0.1 M Tris, pH 7.4 20 °C): 25 µM | critical concentration for micelle-like oligomers ([2]; pyrene and surface tension studies): 17 µM | length of spherocylindrical micelle structures (SANS) [3]: 11 nm | radius of spherocylindrical micelle structures (SANS) [3]: 2.4 nm

hIAPP1–19: N-terminal 1–19 fragment of hIAPP, significantly less amyloidogenic than the full-length peptide (KCNTATCATQRLANFLVHS; ends and bridges not checked; cysteine pairing not given here; UniProt P10997 34-52, looked up, fragment)
micelle-like oligomer formation over the concentration range tested (pyrene II/IIII) [4]: did not form oligomers
